{"source": "the supplement of paper PMC7125110", "parents": {"B1": {"name": "glmS ribozyme (parent)", "chain": "AUAAAAGCGCCAGAACUACAGAAAUGUAGUUGACGAGGAGGAGGUUUAUCGAAUUUUCGGCGGAUGCCUCCAAA"}}, "note": "± gives the standard error. Fewer inactive variants are shown than the library holds.", "data": [{"variants_of": "B1", "test": "self-cleavage kobs at 10000 uM GlcN6P; higher = faster cleavage; RNA array", "conditions": "with glucosamine-6-phosphate", "outline": "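Over ~14 h at 37 °C, tiles were imaged as glucosamine-6-phosphate (40 μM to 10 mM) in HEPES/KCl/Mg(OAc)2 buffer flowed across sequenced MiSeq chips. The chips carried barcoded ribozyme variants transcribed in situ by E. coli RNA polymerase and tracked with a hybridised Cy3 probe. After normalisation to baseline and to non-cleaving reference variants, one- or two-exponential decay fits of per-tile medians gave kobs. kcat and KM followed from weighted Michaelis–Menten fits across concentrations.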", "units": {"self-cleavage kobs at 10000 uM GlcN6P": "s⁻¹"}, "values": [{"variant": "C58G G62U", "self-cleavage kobs at 10000 uM GlcN6P": "< 1e-05"}, {"variant": "U55A C58U U65C", "self-cleavage kobs at 10000 uM GlcN6P": "< 1e-05"}, {"variant": "A53G C58U C70U", "self-cleavage kobs at 10000 uM GlcN6P": "0.000123 ± 2.7e-05"}, {"variant": "A48U G59U C68A", "self-cleavage kobs at 10000 uM GlcN6P": "< 1e-05"}, {"variant": "U57A G60A C61A", "self-cleavage kobs at 10000 uM GlcN6P": "< 1e-05"}, {"variant": "U55G C61A C71G", "self-cleavage kobs at 10000 uM GlcN6P": "< 1e-05"}, {"variant": "C58A G60C", "self-cleavage kobs at 10000 uM GlcN6P": "< 1e-05"}, {"variant": "U54A C58U", "self-cleavage kobs at 10000 uM GlcN6P": "6.81e-05 ± 1e-05"}, {"variant": "U57G G62C", "self-cleavage kobs at 10000 uM GlcN6P": "< 1e-05"}, {"variant": "A52U U55G A64U", "self-cleavage kobs at 10000 uM GlcN6P": "< 1e-05"}, {"variant": "C50U C61U C67U", "self-cleavage kobs at 10000 uM GlcN6P": "< 1e-05"}, {"variant": "C50G A53C C71A", "self-cleavage kobs at 10000 uM GlcN6P": "6.73e-05 ± 2.7e-05"}, {"variant": "A52U U65A", "self-cleavage kobs at 10000 uM GlcN6P": "2.95e-05 ± 9.7e-06"}, {"variant": "G59C G63C C70A", "self-cleavage kobs at 10000 uM GlcN6P": "< 1e-05"}, {"variant": "U49A U65G C67G U69A", "self-cleavage kobs at 10000 uM GlcN6P": "< 1e-05"}, {"variant": "U49G C61G", "self-cleavage kobs at 10000 uM GlcN6P": "< 1e-05"}, {"variant": "U54A C67U C70A", "self-cleavage kobs at 10000 uM GlcN6P": "4.02e-05 ± 1.6e-05"}, {"variant": "A53G U57G C67G C68A", "self-cleavage kobs at 10000 uM GlcN6P": "< 1e-05"}, {"variant": "A52U A53C G62C", "self-cleavage kobs at 10000 uM GlcN6P": "< 1e-05"}, {"variant": "U65G G66U C70A", "self-cleavage kobs at 10000 uM GlcN6P": "6.2e-05 ± 1.7e-05"}, {"variant": "G51C G60U C71A", "self-cleavage kobs at 10000 uM GlcN6P": "< 1e-05"}, {"variant": "U56G G60C", "self-cleavage kobs at 10000 uM GlcN6P": "< 1e-05"}, {"variant": "G59C A64U C71G", "self-cleavage kobs at 10000 uM GlcN6P": "< 1e-05"}, {"variant": "U56C G66A C71U", "self-cleavage kobs at 10000 uM GlcN6P": "0.000503 ± 0.00011"}, {"variant": "C50G U54C C71U", "self-cleavage kobs at 10000 uM GlcN6P": "4.14e-05 ± 1.5e-05"}, {"variant": "C58U C61U C71U", "self-cleavage kobs at 10000 uM GlcN6P": "< 1e-05"}, {"variant": "A64G G66C C67A", "self-cleavage kobs at 10000 uM GlcN6P": "0.000252 ± 7.2e-05"}, {"variant": "G51C U54G C70A", "self-cleavage kobs at 10000 uM GlcN6P": "< 1e-05"}, {"variant": "U54G G63C U65C C68G C71G", "self-cleavage kobs at 10000 uM GlcN6P": "3.78e-05 ± 1.6e-05"}, {"variant": "A48U G59U A64G", "self-cleavage kobs at 10000 uM GlcN6P": "< 1e-05"}, {"variant": "U54G G59U C71U", "self-cleavage kobs at 10000 uM GlcN6P": "4.41e-05 ± 1.6e-05"}, {"variant": "C50G G63U U65A U69G", "self-cleavage kobs at 10000 uM GlcN6P": "0.000121 ± 2.7e-05"}, {"variant": "U49C C50U U56C", "self-cleavage kobs at 10000 uM GlcN6P": "< 1e-05"}, {"variant": "C50U G60U C61A", "self-cleavage kobs at 10000 uM GlcN6P": "< 1e-05"}, {"variant": "U54G C61A", "self-cleavage kobs at 10000 uM GlcN6P": "< 1e-05"}, {"variant": "G59A C68G C70U", "self-cleavage kobs at 10000 uM GlcN6P": "< 1e-05"}, {"variant": "U49A C61A", "self-cleavage kobs at 10000 uM GlcN6P": "< 1e-05"}, {"variant": "U54A G66A C68A", "self-cleavage kobs at 10000 uM GlcN6P": "9.65e-05 ± 1.7e-05"}, {"variant": "A52C C68U C70U", "self-cleavage kobs at 10000 uM GlcN6P": "3.87e-05 ± 1.7e-05"}, {"variant": "U54A U57G", "self-cleavage kobs at 10000 uM GlcN6P": "5.94e-05 ± 1.1e-05"}, {"variant": "A53C U55G C67U", "self-cleavage kobs at 10000 uM GlcN6P": "0.00164 ± 0.00038"}, {"variant": "U49G G60A C61G G62U", "self-cleavage kobs at 10000 uM GlcN6P": "< 1e-05"}, {"variant": "U56C A64C U65A", "self-cleavage kobs at 10000 uM GlcN6P": "< 1e-05"}, {"variant": "C50A G59C C70U", "self-cleavage kobs at 10000 uM GlcN6P": "< 1e-05"}, {"variant": "U54C G66C", "self-cleavage kobs at 10000 uM GlcN6P": "0.00113 ± 0.00015"}, {"variant": "G59C G66A", "self-cleavage kobs at 10000 uM GlcN6P": "< 1e-05"}, {"variant": "C58U G59A", "self-cleavage kobs at 10000 uM GlcN6P": "< 1e-05"}, {"variant": "U57C U65C C71A", "self-cleavage kobs at 10000 uM GlcN6P": "< 1e-05"}, {"variant": "U57A A64G", "self-cleavage kobs at 10000 uM GlcN6P": "0.000214 ± 4.6e-05"}, {"variant": "U55C U57A", "self-cleavage kobs at 10000 uM GlcN6P": "0.00024 ± 4.6e-05"}]}]}
